Laboratory results published in PMC5928098, “Association of BrERF72 with methyl jasmonate-induced leaf senescence of Chinese flowering cabbage through activating JA biosynthesis-related genes”.
Positions count from the first letter of the chain named.

How the values were obtained:
GST-BrERF72 [1] = molecular target: T1, GST-BrERF72 (Brassica (Chinese flowering cabbage), UniProt M4CBR0 1-245); experiment: EMSA; LightShift Chemiluminescent EMSA kit, 6% native PAGE; buffer, salt, pH and temperature not stated; settings: protein: recombinant, tags: N-terminal GST (pGEX-4T-1), label: 5' biotin
GST-BrERF72 [2] = molecular target: T1, GST-BrERF72; experiment: competition; unlabeled mutant vs labeled BrAOC3 probe; LightShift Chemiluminescent EMSA kit, 6% native PAGE; buffer, salt, pH and temperature not stated; settings: protein: recombinant; tags: N-terminal GST (pGEX-4T-1); blunt
GST-BrERF72 [3] = molecular target: T1, GST-BrERF72; experiment: competition; unlabeled mutant vs labeled BrLOX4 probe; LightShift Chemiluminescent EMSA kit, 6% native PAGE; buffer, salt, pH and temperature not stated; settings: protein: recombinant; tags: N-terminal GST (pGEX-4T-1); blunt
GST-BrERF72 [4] = molecular target: T1, GST-BrERF72; experiment: competition; unlabeled mutant vs labeled BrOPR3 probe; LightShift Chemiluminescent EMSA kit, 6% native PAGE; buffer, salt, pH and temperature not stated; settings: protein: recombinant; tags: N-terminal GST (pGEX-4T-1); blunt

T1 sequence (M4CBR0 entry or part of it): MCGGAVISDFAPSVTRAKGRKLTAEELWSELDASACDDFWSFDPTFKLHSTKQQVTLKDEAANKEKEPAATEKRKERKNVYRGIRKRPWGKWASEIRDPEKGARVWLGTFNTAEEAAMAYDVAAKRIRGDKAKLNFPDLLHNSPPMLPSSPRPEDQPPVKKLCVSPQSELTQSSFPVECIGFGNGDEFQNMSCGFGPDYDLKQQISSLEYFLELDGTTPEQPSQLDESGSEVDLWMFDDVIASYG

B1: BrOPR3 promoter probe (dsDNA)
DNA 1: CCTGAACCAATCATAGCCTGGCGGCTAAGTCTTACAGTTGA
DNA 2: TCAACTGTAAGACTTAGCCGCCAGGCTATGATTGGTTCAGG
- binding result (GST-BrERF72 [1]; blunt): binds

B2: DRE/CRT probe (dsDNA)
DNA 1: ATTTCATGGCCGACCTGCTTTCATGGCCGACCTGCTTT
DNA 2: AAAGCAGGTCGGCCATGAAAGCAGGTCGGCCATGAAAT
- binding result (GST-BrERF72 [1]): binds

B3: BrAOC3 promoter probe (dsDNA)
DNA 1: ATGTCTTCACTAAAAACACTATACCGACCAGAGTTTTGTAGACATAAATTACGAA
DNA 2: TTCGTAATTTATGTCTACAAAACTCTGGTCGGTATAGTGTTTTTAGTGAAGACAT
- binding result (GST-BrERF72 [1]; blunt): binds

B4: mBrAOC3 promoter probe (dsDNA)
DNA 1: B3 DNA 1 with C24A, C25A, G26A, C28A
DNA 2: B3 DNA 2 with G28T, C30T, G31T, G32T
- binding result (GST-BrERF72 [2]): no binding

B5: BrLOX4 promoter probe (dsDNA)
DNA 1: ACATGTTATATCCGCGCGAAGCGCGGACACCGACTCTAGTTATCAGTAAAAATAAATG
DNA 2: CATTTATTTTTACTGATAACTAGAGTCGGTGTCCGCGCTTCGCGCGGATATAACATGT
- binding result (GST-BrERF72 [1]; blunt): binds

B6: mBrLOX4 promoter probe (dsDNA)
DNA 1: B5 DNA 1 with C30A, C31A, G32A, C34A
DNA 2: B5 DNA 2 with G25T, C27T, G28T, G29T
- binding result (GST-BrERF72 [3]): no binding

B7: GCC-box probe (dsDNA)
DNA 1: CATAAGAGCCGCCACTCATAAGAGCCGCCACT
DNA 2: AGTGGCGGCTCTTATGAGTGGCGGCTCTTATG
- binding result (GST-BrERF72 [1]): binds

B8: mBrOPR3 promoter probe (dsDNA)
DNA 1: CCTGAACCAATCATAGCCTAAAAAATAAGTCTTACAGTTGA
DNA 2: TCAACTGTAAGACTTATTTTTTAGGCTATGATTGGTTCAGG
- binding result (GST-BrERF72 [4]): no binding
